In the supplement of paper PMC12042874:
± gives the uncertainty stated by the source.

Experiment: amyloid nucleation score (Sup35N fusion, yeast selection) (log enrichment); library NNK3; higher = more nucleation; inactive = no reads after selection
Procedure, shortened: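 The nucleation score is the log enrichment of output over input reads, calculated with DiMSum and centred on the mode score of non-aggregating sequences. Sequences with under 100 input reads were excluded. Reads came from Illumina sequencing of plasmid inserts from psi-negative yeast expressing Sup35N fused to peptides of 20 random codons, induced 24 hours with 100 μM copper sulfate and grown 7 days at 30°C without adenine and uracil.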

FSLVAKMSFESLATNRWDSR
amyloid nucleation score: 1.41 ± 0.15

FSLVMDCI
amyloid nucleation score: inactive

FSMSPSTTYRAFGHYSPGQH
amyloid nucleation score: -0.074 ± 0.5

FSNSSGNGEGDLRENLQNKM
amyloid nucleation score: inactive

FSQWT
amyloid nucleation score: inactive

FSRTSCVGDCYCGAYNRLSG
amyloid nucleation score: 2.02 ± 0.095

FSSQYMSCIVRRHGGNLDAC
amyloid nucleation score: 0.033 ± 0.39

FSSRKSLCGLDLKECFTSVE
amyloid nucleation score: inactive

FSTVKQLYCFMTPIYASFNS
amyloid nucleation score: -0.531 ± 1

FSTVTYQGVTALVNQSSVTT
amyloid nucleation score: inactive

FSVHRGLLFITQGSDVAEHV
amyloid nucleation score: inactive

FSYCG
amyloid nucleation score: inactive

FSYLLYRRNDTCPQALRLRR
amyloid nucleation score: inactive

FSYRPSNCYIR
amyloid nucleation score: inactive

FTEKGGLPC
amyloid nucleation score: inactive

FTFGCSLCTMYTANSHFRGC
amyloid nucleation score: 1.87 ± 0.061

FTFNSWSSWWNTSSFLIKGQ
amyloid nucleation score: inactive

FTGAMAFFLWFIQDYWFTGW
amyloid nucleation score: inactive

FTHNHK
amyloid nucleation score: inactive

FTIGRYILFVMKDFVFLWFV
amyloid nucleation score: inactive

FTPARRLSRLIVFCFG
amyloid nucleation score: inactive

FTRNEQP
amyloid nucleation score: inactive

FTRTREMENCNFLNFYRYMV
amyloid nucleation score: inactive

FTSKKLLCLDKPFNIGDCGY
amyloid nucleation score: inactive

FTTRFTFTIP
amyloid nucleation score: 1.24 ± 0.17

FTYVLTLMSFNGGPRGRYGW
amyloid nucleation score: 2.66 ± 0.068

FVCLLCPMYYVHSTMWMSAR
amyloid nucleation score: 2.01 ± 0.057

FVCLSNIHMGTKTVILAMCL
amyloid nucleation score: inactive

FVEYSSVQYAACNLDRLFLF
amyloid nucleation score: inactive

FVGHDTELNPHGRYGCLD
amyloid nucleation score: inactive

FVGYINILLIADSALGVRIL
amyloid nucleation score: 1.64 ± 0.076

FVLICGYFIFIWTVSFNCYW
amyloid nucleation score: inactive

FVMGMNAVQRSLSSIYTLCV
amyloid nucleation score: inactive

FVQNDNYKWVWL
amyloid nucleation score: inactive

FVRGTVWKSTGDVMDAVPAT
amyloid nucleation score: inactive

FVSSYNIENV
amyloid nucleation score: inactive

FVSVLACSDKLGK
amyloid nucleation score: inactive

FVTFGYQWYRRVAGALGCLE
amyloid nucleation score: 0.37 ± 0.57

FVTYDPYTFIDYFIVSHPRL
amyloid nucleation score: 0.61 ± 0.17

FVVELCVDPTFKLYD
amyloid nucleation score: inactive

FVVGIFYSIQYIECSRVSSY
amyloid nucleation score: -0.106 ± 0.55

FVVKYNWRYDLLIPYQMDLI
amyloid nucleation score: inactive

FVVWCDVTGS
amyloid nucleation score: inactive

FVWNERWKIRLYLMSFGRGR
amyloid nucleation score: 2.35 ± 0.065

FVYFFCVSLTSSSPSDCDWP
amyloid nucleation score: 1.6 ± 0.069

FVYSMKSCSYRDLGLNSYLL
amyloid nucleation score: inactive

FWAYERVGSRSAFGWLGREA
amyloid nucleation score: 0.705 ± 0.21

FWFFTSMLVSVCLMRASRCL
amyloid nucleation score: inactive

FWFFYNICRMLKSVT
amyloid nucleation score: inactive

FWHNSG
amyloid nucleation score: inactive

FWKACTCI
amyloid nucleation score: inactive

FWKWL
amyloid nucleation score: inactive

FWLLVFPGNMMSS
amyloid nucleation score: 0.818 ± 0.14

FWSGIWSNTFRFYGAVIWPG
amyloid nucleation score: inactive

FYAYVSVDTVCSVAICLICT
amyloid nucleation score: inactive

FYFWLASLCSSDFSFYKVKL
amyloid nucleation score: inactive

FYGLYFYHSVH
amyloid nucleation score: inactive

FYHDMIWTILLDYTRRFHKL
amyloid nucleation score: inactive

FYIICWWVLDQDFCAWL
amyloid nucleation score: inactive

FYLIRKTIFLGSISLVWYGV
amyloid nucleation score: inactive

FYMAKRICKVQHGVNGPYAK
amyloid nucleation score: inactive

FYMFDSRLLFWRYCCWKFSY
amyloid nucleation score: inactive

FYPKQYQKLSYVWWY
amyloid nucleation score: inactive

FYRSLGMYRDWTMSIFGKYL
amyloid nucleation score: inactive

FYSFCQSKSLMTFSGDLPPS
amyloid nucleation score: inactive

FYSLIMHLKRLSYVA
amyloid nucleation score: inactive

FYVNCFSL
amyloid nucleation score: 1.01 ± 0.11

FYVTMTAASFPDFRHCVVND
amyloid nucleation score: 0.01 ± 0.57

FYYPRS
amyloid nucleation score: inactive

GACVKDSLVAGNSSMTSAGL
amyloid nucleation score: 3.9 ± 0.061

GAFMLEGAIRRFS
amyloid nucleation score: inactive

GAGPGLITMSNSN
amyloid nucleation score: inactive

GASSIFLIVRSDGSYFSPD
amyloid nucleation score: inactive

GASVGFEVHCNFVVNLNVQH
amyloid nucleation score: 2.18 ± 0.066

GCDILQFRHCF
amyloid nucleation score: inactive

GCFNGNSYRSLPFWFMSTCL
amyloid nucleation score: inactive

GCGVC
amyloid nucleation score: -0.609 ± 0.98

GCIRLGLNSVGVNNIVA
amyloid nucleation score: inactive

GCLYGSSSV
amyloid nucleation score: inactive

GCTFRNWIWWLHRFDKMR
amyloid nucleation score: 0.861 ± 0.15

GCVAAMS
amyloid nucleation score: inactive

GDLVSIWAMRFELRKSKEMR
amyloid nucleation score: inactive

GDNICQNVFTDGKVDAFFLT
amyloid nucleation score: inactive

GDYGCFSLMQTHTEEEILMR
amyloid nucleation score: inactive

GDYSWSM
amyloid nucleation score: 0.167 ± 0.42

GECWAPVYDFWI
amyloid nucleation score: inactive

GERWVQKIQ
amyloid nucleation score: inactive

GFCKIAAMGFAYHDGAFDGF
amyloid nucleation score: inactive

GFCLQSNLCIIGRSFWTFLI
amyloid nucleation score: 0.629 ± 0.55

GFDMRVGDRMYRDYGMMVGA
amyloid nucleation score: inactive

GFFYRDDARNFVLVTNSWRL
amyloid nucleation score: inactive

GFIGK
amyloid nucleation score: inactive

GFKDLWYCDGF
amyloid nucleation score: inactive

GFRKWKLIVD
amyloid nucleation score: inactive

GFSHANGHGTEKDFSSLIPV
amyloid nucleation score: inactive

GFYSLISQQQFVLNFNGYKM
amyloid nucleation score: 2.34 ± 0.086

GFYVCPMGCNEYRVLICSDS
amyloid nucleation score: inactive

GGENLTFLRSAFCSNWA
amyloid nucleation score: inactive

GGLSL
amyloid nucleation score: inactive

GGLSS
amyloid nucleation score: -0.809 ± 0.71

GGMGSLCSTREGMDWCPRGY
amyloid nucleation score: inactive

GGRVNWM
amyloid nucleation score: inactive

GGSIVVCLRHHRDLSMHSWD
amyloid nucleation score: inactive

GGTNVFGAWSHNQRILCQKG
amyloid nucleation score: inactive

GGVHDSLNIYGFRYGLRKGV
amyloid nucleation score: inactive

GGWLLSEGLC
amyloid nucleation score: inactive

GGYVRSNCGRGVVPMVTRMA
amyloid nucleation score: inactive

GHCKCGPVGPNKRTAR
amyloid nucleation score: inactive

GHIWFIAEVNSICYLLFLVS
amyloid nucleation score: inactive

GHKVSSIDNHFPILSSEAFK
amyloid nucleation score: inactive

GHSSSNMGNVHFKFLC
amyloid nucleation score: inactive

GIFIKFGYR
amyloid nucleation score: inactive

GIFSRPFRAGRGRVIHNGPD
amyloid nucleation score: inactive

GIFTLFYYVMMKLIFDFFTV
amyloid nucleation score: inactive

GIFVSMTLFILKILFARYVR
amyloid nucleation score: inactive

GIIVLLVPETQCRCFGDLIR
amyloid nucleation score: inactive

GILRIWNDLSLRFDKIWWG
amyloid nucleation score: inactive

GILYGPCSFWDFVRLEMSRF
amyloid nucleation score: -0.504 ± 0.8

GIMDLDEGLET
amyloid nucleation score: inactive

GISCNLYVINGICSWYFLVT
amyloid nucleation score: 1.56 ± 0.07

GISPQC
amyloid nucleation score: inactive

GISRLFVGMKKAVTWSAKER
amyloid nucleation score: inactive

GISSKFRSPNRGNCYYRDIL
amyloid nucleation score: inactive

GISYNSV
amyloid nucleation score: inactive

GIVALCRTCDNRRMRVSVGV
amyloid nucleation score: inactive

GIYVVLNCISIFRLWLLSER
amyloid nucleation score: inactive

GKFFMVSRYCESSSLRFESM
amyloid nucleation score: 1.15 ± 0.17

GKIAVS
amyloid nucleation score: inactive

GKINLVTCFVCLSTPFKHSL
amyloid nucleation score: 1.74 ± 0.067

GKRNEWN
amyloid nucleation score: inactive

GKSRFRLRDAWWRLVTQQRR
amyloid nucleation score: inactive

GLAASSTNAFTRHVLNRV
amyloid nucleation score: 1.51 ± 0.13

GLANNYGQYRITSRAKLPRQ
amyloid nucleation score: inactive

GLAVNNRPDCEVSSLNRLLM
amyloid nucleation score: inactive

GLCRLIDLKM
amyloid nucleation score: inactive

GLDYLLHAIYFECRQSGGSR
amyloid nucleation score: 0.983 ± 0.17

GLIDLRVCEGRQFARTGSEM
amyloid nucleation score: 0.132 ± 0.36

GLITWT
amyloid nucleation score: inactive

GLLRTLSQDMTCGRDAGQGN
amyloid nucleation score: inactive

GLNMVWFVHLSVNV
amyloid nucleation score: inactive

GLNYS
amyloid nucleation score: inactive

GLPNGGDPCLREVGSHLVTH
amyloid nucleation score: -0.347 ± 1.4

GLPNLASYSPPPINAKYIGD
amyloid nucleation score: inactive

GLSCDYCTNLVMCCDPQL
amyloid nucleation score: 0.06 ± 0.25

GLSDGWVGHRSYGSENVLLK
amyloid nucleation score: inactive

GLTVVSE
amyloid nucleation score: inactive

GLVWCFCLCSITSYIMVILF
amyloid nucleation score: inactive

GLYKNK
amyloid nucleation score: inactive

GMLPTGRYDRAYSFWGNWRR
amyloid nucleation score: 1.08 ± 0.18

GMSCWGSMQWNVL
amyloid nucleation score: 0.766 ± 0.17

GMVNVARRKMSGLR
amyloid nucleation score: 1.09 ± 0.16

GNCSWRVYGISSGFLRHGAV
amyloid nucleation score: inactive

GNFRSELITMVSCTMECRFL
amyloid nucleation score: inactive

GNGNFIRY
amyloid nucleation score: inactive

GNIDCSTVFVSRNNCD
amyloid nucleation score: inactive

GNIFRRYTVPSDANTKTWIY
amyloid nucleation score: inactive

GNPRNMTVDDSDGKSFYFFY
amyloid nucleation score: inactive

GNVIMLLVTLASGCIPLSSE
amyloid nucleation score: inactive

GPAVWPKWVSLAKWYPSEI
amyloid nucleation score: inactive

GPDYHKHYRTYLPRTAFVGF
amyloid nucleation score: 1.27 ± 0.17

GPMNLMRSVRYALSRSYLLL
amyloid nucleation score: inactive
